# Target: α4β7 integrin on RPMI 8866 cells (UniProt P13612)
# Assay: cell-based or functional assay
row,Substance,"Cell Adhesion A4B7 (nM); RPMI 8866 cells adhering to plate-bound rh MAdCAM-1/Fc Chimera, MTT read-out [nM]"
1,"C-N cyclic peptide SEQ ID NO: 479, cyclo<a-(N-Me-R)-S-D-T-L-n>",> 10000
2,"C-N cyclic peptide SEQ ID NO: 484, cyclo<a-(N-Me-R)-S-D-T-L-e>",> 1000
3,"C-N cyclic peptide SEQ ID NO: 495, cyclo<f-(N-Me-R)-S-D-T-L-a>",> 10000
4,"C-N cyclic peptide SEQ ID NO: 477, Cyclo(a-(N-Me-R)-S-D-T-L-a)",> 10000

# Target: rh integrin α4β7 (R&D Systems #5397-A30) (human) (UniProt P13612)
# Assay: α4β7-MAdCAM competition ELISA
row,Substance,IC50 [nM]
1,"C-N cyclic peptide SEQ ID NO: 485, cyclo<k-(N-Me-R)-S-D-T-L-a>",> 1000
2,"C-N cyclic peptide SEQ ID NO: 504, cyclo<a-(N-Me-R)-S-D-T-L-A-a>",> 1000
3,"C-N cyclic peptide SEQ ID NO: 498, cyclo<p-(N-Me-R)-S-D-T-L-a>",> 1000
4,"C-N cyclic peptide SEQ ID NO: 496, cyclo<l-(N-Me-R)-S-D-T-L-a>",> 1000
5,"C-N cyclic peptide SEQ ID NO: 490, cyclo<a-(N-Me-R)-S-D-T-L-h>",> 1000
6,"C-N cyclic peptide SEQ ID NO: 486, cyclo<k-(N-Me-R)-S-D-T-L-a>",> 1000
7,"C-N cyclic peptide SEQ ID NO: 492, cyclo<a-(N-Me-R)-S-D-T-L-f>",> 1000
8,"C-N cyclic peptide SEQ ID NO: 480, cyclo<h-(N-Me-R)-S-D-T-L-a>",> 1000
9,"C-N cyclic peptide SEQ ID NO: 494, cyclo<f-(N-Me-R)-S-D-T-L-a>",> 1000
10,"C-N cyclic peptide SEQ ID NO: 500, cyclo<r-(N-Me-R)-S-D-T-L-a>",> 1000
11,"C-N cyclic peptide SEQ ID NO: 483, cyclo<a-(N-Me-R)-S-D-T-L-e>",> 1000
12,"C-N cyclic peptide SEQ ID NO: 482, cyclo<a-(N-Me-R)-S-D-T-L-e>",> 1000
13,"C-N cyclic peptide SEQ ID NO: 502, cyclo<A-(N-Me-R)-S-D-T-L-a>",> 1000
14,"C-N cyclic peptide SEQ ID NO: 503, cyclo<A-(N-Me-R)-S-D-T-L-k>",> 1000
15,"C-N cyclic peptide SEQ ID NO: 489, cyclo<a-(N-Me-R)-S-D-T-L-l>",> 1000
16,"C-N cyclic peptide SEQ ID NO: 478, cyclo<a-(N-Me-R)-S-D-T-L-n>",> 1000

# Reference: US20180105572A1
